Measured values from patent US20250043302A1, “MUTATED HYDROXYPHENYLPYRUVATE DIOXYGENASE POLYPEPTIDE, AND CODING GENE AND USE THEREOF” (BEIJING DABEINONG BIOTECHNOLOGY CO., LTD., priority 2021, published 2025).

Legend:
Assay type in all cases: in vivo
[1] = system: Arabidopsis thaliana T1 plants; test: Isoxaflutole tolerance of transgenic Arabidopsis thaliana T1 plants (spray, bleached leaf area grade, damage score); details: Table 11; for Classification and statistics of the grade of pesticide damage Grade 0: number of plants at grade 0; for Classification and statistics of the grade of pesticide damage Grade 1: number of plants at grade 1; for Classification and statistics of the grade of pesticide damage Grade 2: number of plants at grade 2; for Classification and statistics of the grade of pesticide damage Grade 3: number of plants at grade 3; for Scores: pesticide damage score;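 as to Scores: Weighted damage index from 0 to 100 where higher means more damage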
How it was run: (§1)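 Damage was assessed by bleaching grade (0 none; 1 <50%; 2 >50%; 3 100% of leaf area) one week after spraying. Sprays on 18-day-old T1 and wild-type plants used field-rate multiples: topramezone 25–200, isoxaflutole 35–280, mesotrione 52.5–420 g ai/ha.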

[2] = system: Arabidopsis thaliana T1 plants; test: Topramezone tolerance of transgenic Arabidopsis thaliana T1 plants (spray, bleached leaf area grade, damage score); details: Table 10; for Classification and statistics of the grade of pesticide damage Grade 0: number of plants at grade 0; for Classification and statistics of the grade of pesticide damage Grade 1: number of plants at grade 1; for Classification and statistics of the grade of pesticide damage Grade 2: number of plants at grade 2; for Classification and statistics of the grade of pesticide damage Grade 3: number of plants at grade 3; for Scores: pesticide damage score
How it was run: as §1

[3] = system: Arabidopsis thaliana T1 plants; test: Mesotrione tolerance of transgenic Arabidopsis thaliana T1 plants (spray, bleached leaf area grade, damage score); design: Scores: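 damage score 0-100 computed as Σ(N×S)/(T×M)×100 over grades 0-3 with higher meaning more damage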; details: Table 12; for Classification and statistics of the grade of pesticide damage Grade 0: number of plants at grade 0; for Classification and statistics of the grade of pesticide damage Grade 1: number of plants at grade 1; for Classification and statistics of the grade of pesticide damage Grade 2: number of plants at grade 2; for Classification and statistics of the grade of pesticide damage Grade 3: number of plants at grade 3; for Scores: pesticide damage score
How it was run: as §1

B1: HPPDm-9-02: nucleotide sequence encoding AsHPPDm-A106G-K351N-F372A-F383W with mutated C-terminal; vector DBN11790 (nucleic acid)
DNA: ATGCCACCTACTCCAGCTACAGCTACTGGTGCTGCTGCTGCTGCCGTTACTCCTGAGCACGCTGCCAGGTCATTCCCCAGGGTGGTTCGCGTGAACCCCAGATCTGATAGGTTCCCAGTTCTGAGCTTCCACCATGTTGAGCTGTGGTGCGCTGATGCTGCTTCTGCTGCTGGCAGGTTCTCTTTCGCTCTTGGTGCTCCACTCGCTGCTAGATCTGATCTGTCTACAGGAAATAGCGCTCATGCCTCACTCCTGCTTCGCTCAGGTGCTTTGGCCTTCCTCTTCACCGCTCCATATGCTCCCCCACCTCAGGAGGGTGCTACTGCTGCTGCTACAGCCTCCATTCCAAGCTTCTCAGCTGATGCCGCTAGAACCTTCGCTGCTGCTCATGGACTTGCCGTGAGGTCTGTTGGTGTTCGCGTGGCTGATGCTGCTGAGGCTTTCAGAGTTTCCGTTGCCGGCGGAGCTAGGCCAGCTTTCGCTCCTGCTGATTTGGGACATGGTTTCGGCCTGGCTGAGGTTGAGCTTTACGGTGACGTGGTTCTCCGCTTCGTGTCTTACCCAGATGAGACTGACCTGCCTTTCCTTCCCGGCTTCGAGAGAGTTTCCTCTCCTGGTGCCGTGGATTACGGCCTGACAAGGTTCGACCACGTGGTTGGAAACGTTCCCGAGATGGCTCCAGTGATCGATTACATGAAGGGCTTCCTTGGATTCCATGAGTTCGCCGAGTTCACTGCTGAGGACGTGGGAACCACTGAGTCCGGTTTGAACTCTGTGGTTCTCGCCAACAATTCTGAGGCTGTTTTGCTCCCTCTGAATGAGCCTGTGCATGGAACCAAGAGGAGAAGCCAGATTCAAACTTACCTGGAGTACCACGGTGGCCCTGGAGTTCAGCATATCGCCCTTGCTTCTAATGATGTGTTGCGCACACTCAGAGAGATGCGCGCCAGAACCCCCATGGGAGGTTTCGAGTTCATGGCCCCACCACAGGCTAAGTACTACGAGGGCGTTAGAAGGATTGCTGGAGACGTGTTGAGCGAGGAGCAGATCAATGAGTGCCAAGAGCTGGGTGTTCTTGTGGATAGGGATGACCAGGGCGTTCTGCTTCAAATTGCCACTAAGCCAGTGGGCGACCGCCCTACATTCTGGCTTGAGATGATTCAAAGAATCGGCTGCATGGAGAAGGATGAGGTTGGACAGGAGTACCAAAAGGGCGGATGCGGTGGCTTCGGAAAGGGTAACTTCAGCGAGTTGTTCAAGTCAATCGAGGAGTATGAGAAGACCTTGGAGGCCAAGCAGCTCGTGGGTTGA
modifications: mutated C-terminus; HPPDm-9-02 Nucleotide Sequence
notes: vector DBN11790
With B1 the Resistance evaluation ([1]; isoxaflutole 140 g ai/ha (2×)) was “Highly resistant”, the “Classification and statistics of the grade of pesticide damage Grade 0” value ([1]; isoxaflutole 140 g ai/ha (2×)) was 16 and the “Classification and statistics of the grade of pesticide damage Grade 1” value ([1]; isoxaflutole 140 g ai/ha (2×)) was 0. For the same molecule, the “Classification and statistics of the grade of pesticide damage Grade 2” value ([1]; isoxaflutole 140 g ai/ha (2×)) was 0, the “Classification and statistics of the grade of pesticide damage Grade 3” value ([1]; isoxaflutole 140 g ai/ha (2×)) was 0 and the Scores ([1]; isoxaflutole 140 g ai/ha (2×)) was 0. For the same molecule, the Resistance evaluation ([1]; isoxaflutole 280 g ai/ha (4×)) was “Highly resistant”, the “Classification and statistics of the grade of pesticide damage Grade 0” value ([1]; isoxaflutole 280 g ai/ha (4×)) was 16 and the “Classification and statistics of the grade of pesticide damage Grade 1” value ([1]; isoxaflutole 280 g ai/ha (4×)) was 0. For the same molecule, the “Classification and statistics of the grade of pesticide damage Grade 2” value ([1]; isoxaflutole 280 g ai/ha (4×)) was 0, the “Classification and statistics of the grade of pesticide damage Grade 3” value ([1]; isoxaflutole 280 g ai/ha (4×)) was 0 and the Scores ([1]; isoxaflutole 280 g ai/ha (4×)) was 0. The Resistance evaluation ([2]; topramezone 100 g ai/ha (4×)) was “Highly resistant”, the “Classification and statistics of the grade of pesticide damage Grade 0” value ([2]; topramezone 100 g ai/ha (4×)) was 16 and the “Classification and statistics of the grade of pesticide damage Grade 1” value ([2]; topramezone 100 g ai/ha (4×)) was 0. For the same molecule, the “Classification and statistics of the grade of pesticide damage Grade 2” value ([2]; topramezone 100 g ai/ha (4×)) was 0, the “Classification and statistics of the grade of pesticide damage Grade 3” value ([2]; topramezone 100 g ai/ha (4×)) was 0 and the Scores ([2]; topramezone 100 g ai/ha (4×)) was 0. For the same molecule, the Resistance evaluation ([2]; topramezone 200 g ai/ha (8×)) was “Highly resistant”, the “Classification and statistics of the grade of pesticide damage Grade 0” value ([2]; topramezone 200 g ai/ha (8×)) was 16 and the “Classification and statistics of the grade of pesticide damage Grade 1” value ([2]; topramezone 200 g ai/ha (8×)) was 0. The “Classification and statistics of the grade of pesticide damage Grade 2” value ([2]; topramezone 200 g ai/ha (8×)) was 0, the “Classification and statistics of the grade of pesticide damage Grade 3” value ([2]; topramezone 200 g ai/ha (8×)) was 0 and the Scores ([2]; topramezone 200 g ai/ha (8×)) was 0. The Resistance evaluation ([3]; mesotrione 210 g ai/ha (2×)) was “Highly resistant”, the “Classification and statistics of the grade of pesticide damage Grade 0” value ([3]; mesotrione 210 g ai/ha (2×)) was 16 and the “Classification and statistics of the grade of pesticide damage Grade 1” value ([3]; mesotrione 210 g ai/ha (2×)) was 0. The “Classification and statistics of the grade of pesticide damage Grade 2” value ([3]; mesotrione 210 g ai/ha (2×)) was 0, the “Classification and statistics of the grade of pesticide damage Grade 3” value ([3]; mesotrione 210 g ai/ha (2×)) was 0 and the Scores ([3]; mesotrione 210 g ai/ha (2×)) was 0. The Resistance evaluation ([3]; mesotrione 420 g ai/ha (4×)) was “Highly resistant”, the “Classification and statistics of the grade of pesticide damage Grade 0” value ([3]; mesotrione 420 g ai/ha (4×)) was 16 and the “Classification and statistics of the grade of pesticide damage Grade 1” value ([3]; mesotrione 420 g ai/ha (4×)) was 0. For the same molecule, the “Classification and statistics of the grade of pesticide damage Grade 2” value ([3]; mesotrione 420 g ai/ha (4×)) was 0, the “Classification and statistics of the grade of pesticide damage Grade 3” value ([3]; mesotrione 420 g ai/ha (4×)) was 0 and the Scores ([3]; mesotrione 420 g ai/ha (4×)) was 0.
